# Data reported in PMC9957003, “Functional Analyses of Rare Germline Missense BRCA1 Variants Located within and outside Protein Domains with Known Functions” (Genes, 2023).
# Where a chain is given by its changes, count along the chain named.
# T1: BARD1-V5 WT (BRCA1-Associated RING Domain protein 1) (UniProt Q99728 1-777)
# T1 construct: BARD1 (BRCA1-Associated RING Domain protein 1), wild type; also called pcDNA6.2-BARD1-V5; source: HEK293FT, transiently co-transfected, in lysate
# T1 sequence (looked up): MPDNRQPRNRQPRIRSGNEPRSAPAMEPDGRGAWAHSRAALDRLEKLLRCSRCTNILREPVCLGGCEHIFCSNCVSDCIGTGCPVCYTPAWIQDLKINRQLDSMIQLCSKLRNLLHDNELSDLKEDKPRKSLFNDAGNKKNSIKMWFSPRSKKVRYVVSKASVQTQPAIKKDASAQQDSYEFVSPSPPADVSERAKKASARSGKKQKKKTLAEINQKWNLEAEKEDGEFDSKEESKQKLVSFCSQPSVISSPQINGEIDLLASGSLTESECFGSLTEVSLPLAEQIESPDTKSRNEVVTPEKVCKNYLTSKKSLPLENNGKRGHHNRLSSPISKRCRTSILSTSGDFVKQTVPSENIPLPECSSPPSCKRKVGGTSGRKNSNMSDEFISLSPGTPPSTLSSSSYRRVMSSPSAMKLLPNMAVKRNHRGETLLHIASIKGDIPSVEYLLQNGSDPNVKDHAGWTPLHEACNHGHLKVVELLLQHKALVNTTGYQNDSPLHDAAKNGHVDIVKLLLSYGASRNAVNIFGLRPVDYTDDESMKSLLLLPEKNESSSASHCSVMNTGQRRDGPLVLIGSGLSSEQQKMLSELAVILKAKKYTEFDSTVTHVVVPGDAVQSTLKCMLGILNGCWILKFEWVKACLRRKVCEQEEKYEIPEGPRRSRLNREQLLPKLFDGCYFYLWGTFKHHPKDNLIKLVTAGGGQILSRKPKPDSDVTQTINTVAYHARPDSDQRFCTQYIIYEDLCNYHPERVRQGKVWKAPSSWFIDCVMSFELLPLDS
# T2: Flag-PALB2 WT (Partner and Localiser of BRCA2) (UniProt Q86YC2 1-1186)
# T2 construct: PALB2 (Partner and Localiser of BRCA2), wild type; printed both as Flag-PALB2 and as PALB2-Flag; also called PALB2-Flag; pDEST-FRT/T0-Flag-PALB2; source: HEK293FT, transiently co-transfected, in lysate
# T2 sequence (looked up): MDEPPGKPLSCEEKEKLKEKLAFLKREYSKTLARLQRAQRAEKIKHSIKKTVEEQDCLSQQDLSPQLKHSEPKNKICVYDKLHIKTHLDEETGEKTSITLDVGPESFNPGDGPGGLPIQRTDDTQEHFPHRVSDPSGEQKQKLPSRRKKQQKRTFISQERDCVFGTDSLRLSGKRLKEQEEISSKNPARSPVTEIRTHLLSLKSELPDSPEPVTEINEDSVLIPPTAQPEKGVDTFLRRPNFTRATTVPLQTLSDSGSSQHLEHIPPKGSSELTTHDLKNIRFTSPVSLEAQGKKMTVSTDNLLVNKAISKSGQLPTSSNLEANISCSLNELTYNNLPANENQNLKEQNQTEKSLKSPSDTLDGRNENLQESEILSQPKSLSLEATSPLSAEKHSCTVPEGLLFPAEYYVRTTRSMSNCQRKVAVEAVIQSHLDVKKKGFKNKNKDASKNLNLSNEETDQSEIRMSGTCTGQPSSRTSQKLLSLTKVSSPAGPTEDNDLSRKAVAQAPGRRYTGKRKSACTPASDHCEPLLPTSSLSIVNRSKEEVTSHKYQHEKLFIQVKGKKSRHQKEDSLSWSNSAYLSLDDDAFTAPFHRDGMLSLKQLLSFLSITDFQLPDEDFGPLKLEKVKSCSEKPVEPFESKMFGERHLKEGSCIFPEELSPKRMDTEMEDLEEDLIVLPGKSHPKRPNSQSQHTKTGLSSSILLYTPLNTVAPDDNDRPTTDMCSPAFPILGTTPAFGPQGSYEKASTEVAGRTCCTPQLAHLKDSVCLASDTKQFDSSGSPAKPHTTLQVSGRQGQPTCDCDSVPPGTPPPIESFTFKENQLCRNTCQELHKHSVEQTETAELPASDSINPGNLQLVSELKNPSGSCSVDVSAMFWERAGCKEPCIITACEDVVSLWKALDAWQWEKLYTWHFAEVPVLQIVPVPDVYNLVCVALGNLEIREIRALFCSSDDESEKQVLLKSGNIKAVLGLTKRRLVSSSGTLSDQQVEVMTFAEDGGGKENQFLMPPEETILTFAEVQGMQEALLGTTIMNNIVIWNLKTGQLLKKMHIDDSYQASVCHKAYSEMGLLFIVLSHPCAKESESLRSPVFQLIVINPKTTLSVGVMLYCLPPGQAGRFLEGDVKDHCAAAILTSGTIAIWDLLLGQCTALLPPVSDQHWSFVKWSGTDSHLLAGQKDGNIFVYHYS
# B1: BRCA1 p.Arg504Cys (full-length, mCherry-tagged) (natural protein, human, UniProt P38398 1-1863, looked up)
# chain: MDLSALRVEEVQNVINAMQKILECPICLELIKEPVSTKCDHIFCKFCMLKLLNQKKGPSQCPLCKNDITKRSLQESTRFSQLVEELLKIICAFQLDTGLEYANSYNFAKKENNSPEHLKDEVSIIQSMGYRNRAKRLLQSEPENPSLQETSLSVQLSNLGTVRTLRTKQRIQPQKTSVYIELGSDSSEDTVNKATYCSVGDQELLQITPQGTRDEISLDSAKKAACEFSETDVTNTEHHQPSNNDLNTTEKRAAERHPEKYQGSSVSNLHVEPCGTNTHASSLQHENSSLLLTKDRMNVEKAEFCNKSKQPGLARSQHNRWAGSKETCNDRRTPSTEKKVDLNADPLCERKEWNKQKLPCSENPRDTEDVPWITLNSSIQKVNEWFSRSDELLGSDDSHDGESESNAKVADVLDVLNEVDEYSGSSEKIDLLASDPHEALICKSERVHSKSVESNIEDKIFGKTYRKKASLPNLSHVTENLIIGAFVTEPQIIQERPLTNKLKCKRRPTSGLHPEDFIKKADLAVQKTPEMINQGTNQTEQNGQVMNITNSGHENKTKGDSIQNEKNPNPIESLEKESAFKTKAEPISSSISNMELELNIHNSKAPKKNRLRRKSSTRHIHALELVVSRNLSPPNCTELQIDSCSSSEEIKKKKYNQMPVRHSRNLQLMEGKEPATGAKKSNKPNEQTSKRHDSDTFPELKLTNAPGSFTKCSNTSELKEFVNPSLPREEKEEKLETVKVSNNAEDPKDLMLSGERVLQTERSVESSSISLVPGTDYGTQESISLLEVSTLGKAKTEPNKCVSQCAAFENPKGLIHGCSKDNRNDTEGFKYPLGHEVNHSRETSIEMEESELDAQYLQNTFKVSKRQSFAPFSNPGNAEEECATFSAHSGSLKKQSPKVTFECEQKEENQGKNESNIKPVQTVNITAGFPVVGQKDKPVDNAKCSIKGGSRFCLSSQFRGNETGLITPNKHGLLQNPYRIPPLFPIKSFVKTKCKKNLLEENFEEHSMSPEREMGNENIPSTVSTISRNNIRENVFKEASSSNINEVGSSTNEVGSSINEIGSSDENIQAELGRNRGPKLNAMLRLGVLQPEVYKQSLPGSNCKHPEIKKQEYEEVVQTVNTDFSPYLISDNLEQPMGSSHASQVCSETPDDLLDDGEIKEDTSFAENDIKESSAVFSKSVQKGELSRSPSPFTHTHLAQGYRRGAKKLESSEENLSSEDEELPCFQHLLFGKVNNIPSQSTRHSTVATECLSKNTEENLLSLKNSLNDCSNQVILAKASQEHHLSEETKCSASLFSSQCSELEDLTANTNTQDPFLIGSSKQMRHQSESQGVGLSDKELVSDDEERGTGLEENNQEEQSMDSNLGEAASGCESETSVSEDCSGLSSQSDILTTQQRDTMQHNLIKLQQEMAELEAVLEQHGSQPSNSYPSIISDSSALEDLRNPEQSTSEKAVLTSQKSSEYPISQNPEGLSADKFEVSADSSTSKNKEPGVERSSPSKCPSLDDRWYMHSCSGSLQNRNYPSQEELIKVVDVEEQQLEESGPHDLTETSYLPRQDLEGTPYLESGISLFSDDPESDPSEDRAPESARVGNIPSSTSALKVPQLKVAESAQSPAAAHTTDTAGYNAMEESVSREKPELTASTERVNKRMSMVVSGLTPEEFMLVYKFARKHHITLTNLITEETTHVVMKTDAEFVCERTLKYFLGIAGGKWVVSYFWVTQSIKERKMLNEHDFEVRGDVVNGRNHQGPKRARESQDRKIFRGLEICCYGPFTNMPTDQLEWMVQLCGASVVKELSSFTLGTGVHPIVVVQPDAWTEDNGFHAIGQMCEAPVVTREWVLDSVALYQCQELDTYLIPQIPHSHY
# notes: BRCA1, human, full-length, rare germline missense variant introduced in the WT plasmid; Made by site-directed mutagenesis of the plasmid of m1; also called c.1510C > T; source: HEK293FT, transiently co-transfected, in lysate
# B2: BRCA1 p.Arg610Thr (full-length, mCherry-tagged) (natural protein, human, UniProt P38398 1-1863, looked up)
# chain: B1 chain with C504R, R610T
# notes: BRCA1, human, full-length, rare germline missense variant introduced in the WT plasmid; Made by site-directed mutagenesis of the plasmid of m1; also called c.1829G > C; source: HEK293FT, transiently co-transfected, in lysate
# B3: BRCA1 p.Arg612Gly (full-length, mCherry-tagged) (natural protein, human, UniProt P38398 1-1863, looked up)
# chain: B1 chain with C504R, R612G
# notes: BRCA1, human, full-length, rare germline missense variant introduced in the WT plasmid; Made by site-directed mutagenesis of the plasmid of m1; also called c.1834A > G; source: HEK293FT, transiently co-transfected, in lysate
# B4: BRCA1 p.Glu575Lys (full-length, mCherry-tagged) (natural protein, human, UniProt P38398 1-1863, looked up)
# chain: B1 chain with C504R, E575K
# notes: BRCA1, human, full-length, rare germline missense variant introduced in the WT plasmid; Made by site-directed mutagenesis of the plasmid of m1; also called c.1723G > A; source: HEK293FT, transiently co-transfected, in lysate
# B5: BRCA1 p.Gly890Arg (full-length, mCherry-tagged) (natural protein, human, UniProt P38398 1-1863, looked up)
# chain: B1 chain with C504R, G890R
# notes: BRCA1, human, full-length, rare germline missense variant introduced in the WT plasmid; Made by site-directed mutagenesis of the plasmid of m1; also called c.2668G > A; source: HEK293FT, transiently co-transfected, in lysate
# B6: BRCA1 p.Gly933Asp (full-length, mCherry-tagged) (natural protein, human, UniProt P38398 1-1863, looked up)
# chain: B1 chain with C504R, G933D
# notes: BRCA1, human, full-length, rare germline missense variant introduced in the WT plasmid; Made by site-directed mutagenesis of the plasmid of m1; also called c.2798G > A; source: HEK293FT, transiently co-transfected, in lysate
# Molecular target: T1, BARD1-V5 WT (BRCA1-Associated RING …)
# Assay: co-IP; HEK293FT co-transfected with BRCA1 WT or variant and BARD1-V5; 2 mg lysate protein incubated 90 min at 4 °C with V5 antibody coupled to Dynabeads Protein G; non-denaturing elution; BRCA1 in the IP detected by anti-BRCA1 blot, normalised to the anti-V5 signal, % of WT
# Settings: partners not purified
row,Binder,Co-IP BARD1 (% of WT)
1,B1,63 % of WT
2,B2,81 % of WT
3,B3,71 % of WT
4,B4,77 % of WT
5,B5,77 % of WT
6,B6,73 % of WT

# Molecular target: T2, Flag-PALB2 WT (Partner and Localiser of …)
# Assay: co-IP; HEK293FT co-transfected with BRCA1 WT or variant and Flag-PALB2; 2 mg lysate protein incubated 90 min at 4 °C with Flag antibody coupled to Dynabeads Protein G; non-denaturing elution; BRCA1 in the IP detected by anti-BRCA1 blot, normalised to the anti-Flag signal, % of WT
# Settings: partners not purified
row,Binder,Co-IP PALB2 (% of WT)
1,B1,65 % of WT
2,B2,56 % of WT
3,B3,59 % of WT
4,B4,66 % of WT
5,B5,89 % of WT
6,B6,115 % of WT
